Measurements as given in US20150050213A1, “COMPOSITIONS AND METHODS FOR IMAGING INFLAMMATION OF TRAUMATIC BRAIN INJURY” (University of Virginia Patent Foundation, priority 2013, published 2015).

Key:
[1] = reported; poor imaging quality due to lipophilicity; cited from earlier work
[2] = target: T1, neutrophil N-formylpeptide receptor (Homo sapiens, UniProt P21462); details: reported in the literature; cited from earlier work
T1 sequence (P21462 1-350): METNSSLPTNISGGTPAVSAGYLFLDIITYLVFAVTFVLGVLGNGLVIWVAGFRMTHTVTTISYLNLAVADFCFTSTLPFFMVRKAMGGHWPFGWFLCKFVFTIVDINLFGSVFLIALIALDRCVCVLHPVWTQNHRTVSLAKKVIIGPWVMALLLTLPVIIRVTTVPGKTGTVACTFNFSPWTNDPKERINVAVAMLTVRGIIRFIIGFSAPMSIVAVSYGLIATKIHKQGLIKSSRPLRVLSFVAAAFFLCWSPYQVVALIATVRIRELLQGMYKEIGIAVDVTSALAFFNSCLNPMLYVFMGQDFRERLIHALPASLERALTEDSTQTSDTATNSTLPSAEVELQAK

[3] = target: T2, FPR (Homo sapiens, UniProt P21462); details: human neutrophils; Locke et al. 2009; cited from earlier work
T2 construct: endogenous in cells; host or cells: human neutrophils
T2 sequence (P21462 1-350): T1 sequence (P21462 1-350)

[4] = tested on: neutrophils; details: superoxide stimulation assays; Locke et al.; cited from earlier work
[5] = target: T3, neutrophil receptor (formyl peptide receptor, FPR) (Homo sapiens, UniProt P21462); details: human neutrophils; Zhang et al. 2007; cited from earlier work
T3 construct: endogenous in cells; host or cells: human neutrophils
T3 sequence (P21462 1-350): T1 sequence (P21462 1-350)

[6] = tested on: infiltrating neutrophils; design: species or system Sprague-Dawley rats; details: rat, in vivo
Description: Sprague-Dawley rats (N=3/experimental group) underwent moderate-severe experimental controlled cortical impact (CCI) trauma brain injury (TBI) or SHAM preparation. Animals were sacrificed 12, 24, or 48 hours post-injury, a tail vein catheter was inserted 12 hr prior to sacrifice, and each animal received a 2 mCi dose of cFLFLF-PEG-^64Cu. Radiopharmaceutical was allowed to circulate for 12 hrs prior to sacrifice. Brains were removed and unfixed, […] frozen sections were collected on a Leica CM3050S cryostat. Sections were collected onto slides and placed on radiosensitive FujiFilm SR imaging plates for 12 hours. Each screen was read with a GE Typhoon FLA9000 phosphor imager at a pixel size of […]. Average intensity values from seven ROIs (FIG. 5B-5G) were measured from 20 brain sections that included the entirety of the contusion volume. Values were normalized to the corrected dose of radiation and animal body weight. Average intensity values of each ROI were compared to the contralateral anatomical region in each of the SHAM, 12, 24 hour, and 48 hour experimental groups. Phosphor imaging is a standard technique for determining whether a labeled ligand is suitable for PET imaging and positive results are an indicator that the labeled ligand is indeed useful for PET imaging.

[7] = mouse, in vivo; cited from earlier work
[8] = tested on: infiltrating neutrophils; test: neutrophil co-localization immunohistochemistry after CCI TBI; assay type: in vivo; details: CCI TBI rats, 12 hours post-injury
Description: Neutrophil co-localization: Rats underwent CCI injury as described above and were immediately injected with cFLFLF-PEG-Cy5 through a tail vein catheter. Animals were sacrificed 12 hours post-injection and perfused with 200 cc of a 10% sucrose wash and 200 cc of 4% paraformaldehyde. After four hours, animals were perfused with a 30% sucrose cryoprotectant. Brains were then removed and sectioned at a thickness of […]. Sections were incubated in rabbit anti-rat neutrophil elastase (abcam 21595) at a dilution of 1:200 overnight at 4° C. Next, sections were washed three times in PBS and then incubated in alexa fluor 488 goat anti-rabbit antibody at a 1:200 dilution at room temperature for two hours. Sections were washed three times in PBS. Vectashield mounting medium with DAPI was applied to each section with a cover slip. Slides were assessed with a Zeiss Axioimager Z1 microscope equipped with the Apotome module. Photomicrographs were acquired using the Zeiss Zen 2011 software (FIG. 2).

| Substance | liver uptake [1] | affinity for the neutrophil N-formylpeptide receptor [2] | Kd [3] [nM] | biologic activity toward neutrophils [4] | Kd [5] [nM] | post-injury time point of most prominent uptake [6] [h] | time of statistically significant peak uptake, ratio ipsilateral to contralateral, caudate and putamen [6] [h] | time of statistically significant peak uptake, ratio ipsilateral to contralateral, corpus callosum [6] [h] | time of statistically significant peak uptake, ratio ipsilateral to contralateral, cortex [6] | time of statistically significant peak uptake, ratio ipsilateral to contralateral, hemisphere [6] [h] | time of statistically significant peak uptake, ratio ipsilateral to contralateral, hippocampus [6] [h] | uptake within cerebrospinal fluid (CSF) in the ventricles [6] | mean biologic half-life [7] [min] | co-localization with neutrophil markers [8] |
| --- | --- | --- | --- | --- | --- | --- | --- | --- | --- | --- | --- | --- | --- | --- |
| cF(D)LF(D)LF [cFLFLF] | high liver uptake | high affinity | 2 | – | – | – | – | – | – | – | – | – | – | – |
| cinnamoyl-F(D)LF(D)LFK-polyethylene glycol-DOTA-64Cu [cFLFLF-PEG-^64Cu] | – | – | 17.7 | no biologic activity toward neutrophils | 5.7 | 12 | 12 | 12 | 12 and 24 hour | 12 | 12 | intense uptake | 55±8 | – |
| cinnamoyl-F(D)LF(D)LFK-polyethylene glycol [cFLFLF-PEG] | – | – | – | – | – | – | – | – | – | – | – | – | – | localizes to infiltrating neutrophils within brain parenchyma |
